Reference: a protein production outcome set (Wang et al. 2014)

Assay: label from the status in PepcDB records

Sequence	protein production
MSLTVVLIVDDHHLIRAGAKNLLEGAFSGMRVEGAETVSDALAFLEADNTVDLILLDVNLPDAEAIDGLVRLKRFDPSNAVALISGETDHELIRAALEAGADGFIPKSADPQVLIHAVSLILEGEIFLPRSYLQGGRMAEVATPLDEGHHHHHH	not failed
MSLVAARPLVLVVDDNAVNREALILYLKSRGIDAVGADGAEEARLYLHYQKRIGLMITDLRMQPESGLDLIRTIRASERAALSIIVVSGDTDVEEAVDVMHLGVVDFLLKPVDLGKLLELVNKELKIGEGHHHHHH	not failed
MSLVKKSSNVIAAVVSSVRTNFAQQILDGIQEEAHKNGYNLIIVYSGSADPEEQKHALLTAIERPVMGILLLSIALTDDNLQLLQSSDVPYCFLSMGFDDDRPFISSDDEDIGYQATNLLINEGHRQIGIAGIDQYPYTGRKRLAGYKKALKEANIAINQEWIKPGDYSYTSGEQAMKAFGKNTDLTGIIAASDMTAIGILNQASSFGIEVPKDLSIVSIDGTEMCKITRPQLTSISQDFFQMGVTGVQQIHQSVKNGSNRIVSQQFIPVNPVIRKSTARLGEGHHHHHH	not failed
MSLVNNFTVKKVRSSNLELLRLLSMFFVLVVHADFQALGMPDRTEMTILPLFSVFRIIIEAFAIVCVNSFVLLSGWFGINFHIKSLCNLLFQCAFFLIGIYTFTILIGIEPLSISGIKRCLMLTNNVWFVKCYLGMFIMAPILNAFVEKTDKRTFSTVLLSFFIFQTIYGWFSNGAPYFEKGYSAFSFMGLYLLARYVRIYQPSYTQWSKSKNLLMYISLSTFTALMLIITCYFDKVGYFCMFWTYTSPLVIAGALYLLLFFNRFAFQNKGINWIAASCFAVYLFHFFIWEYFMKPHIQQLAVTYNGISCLLVITGLLLTFFTAAILIDKIRLYIWNHFVSKYIS	failed
MSLWRLPMTLKTMTLAFAVTGLGVLAGSSPSVVQQRDGSQVVTPDEPKYNEDTGFYEYEKDGHKVQMNKDDVKTIEEVKLEHHHHHH	not failed
MSLYKQLLIAICLFVLIIFSGSFFVSLENSREQYNNQLHSHAQDAATALGLSLTPNIDDPAMVELMVSSIFDSGYFSSIRVRDLKTGNVTLERTASPDIPDVPLWFVQLVDLQPGAGEAIVMRGWEQAAKVEVVSHPMFAVTRLWRSSTATFLWLLGCGTLGVLIGALFLRRQLRPLDYIVDQSLAITRREFLSQPDLPNTPEFRRVAQAMNLMVSKLKTLFEEEAERSERLRQEAYQDPQTGLNNRRAFDMQFNDKLADEETAPGFLIMIRVQDLAGMNQRLGGQRTDALLASVGHILRKTQKQHTNTESLLARIRGGEFALFCPGLVDKEVYALIGELTRNIETLHLTGETDVSPVAQFGMVPFRPGDTAQSLFIQGDQALTRAESDTDTTAPYEIPLAGAEQVETDRHMWFNLLDPILEQERLQLFLQPVVACDDPSQVLHHKVLARIQDEQGNSIAAGRFLPWIQRFGWDTRLDQTMLREVLDYLRQHDGNLALSLSGTTVLNLHLLADLLAPLKHQPEVARRLILELDENQLPDSAQLETLIKLLNEHGCALGLQHFGGRFNMIGNLSQWGLAYLKVDGSYIRNIDQEGDKQMFIEALYRATNSIALPLIAERVETAGELKVLQEMGLQGAMGRLLGEPMPAVRA	failed
MSLYTFKELKRATKQDTVSLPKLKVALLGDTATQLLATAIKGEGILRNYNIELWEAEYNQVERQIMDPTSDYYQFEPDYTIIFHSTHKLLEKHSLVNSDLQNKLADDRLDFVRLLCEQGIGRVIYYNYPEIEDTIWGSYATKVQSSFTYQLTKLNYELMNISQAYPNFFICNLAGISAKYGRNFMFDSSVYVNTEIILSLDALPIISSRTIDIIAAIQGKFKKCLILDLDNTIWGGVVGDDGWENIQVGHGLGIGKAFTEFQEWVKKLKNRGIIIAVCSKNNEGKAKEPFERNPEMVLKLDDIAVFVANWENKADNIRTIQRTLNIGFDSMVFLDDNPFERNMVREHVPGVTVPELPEDPGDYLEYLYTLNLFETASFSEGHHHHHH	not failed
MSMESKSKRRSPPSSTLEEEVPGKTIHPEDPKITSKNFENPTKETSIQSPIKNSIKPSWNPEPKITRTSIWDIESAGGDSIQNDCQSECNVEDQGHEQEVTLETRIFSGTSDRIEPHRHYGVYLLRNRFDAIQLLTRNTSSSADDYGERRVISEYREMRCEFRVWSPFQSKLAAGIMGGVSDLHLQIGSKVLYLGAGFGRSVSHISDIVGDSGMVYAVEQIPWAGRQLTIMANRRSNIVPIVEDATMPYKYRYEVPACIDIIFADLPPSVLIRALMLNARHFLNPGGHFVAYLHSPTSQGVVFNKDSFAAERRLLKEKQLEPKEMVLLEPFKAGYAFVVGVYIRKDVSL	failed
MSMNDTYQPINCDDYDNLELACQHHLMLTLELKDGEKLQAKASDLVSRKNVEYLVVEAAGETRELRLDKITSFSHPEIGTVVVSES	failed
MSMNSEPTPAEAFFLEGNRLLAASECRAAEACFREALALAPDFAEAHANLGMLLDQEGMAAEAERQYRLALALNPRLGHTHSNLGVLLANQKRFEEAESAYLSAIELEPDSPAAWSNLGVLQACRKQEREAEESYRTALRLDPDYHRASFNLSYLLLRQGRFDEGWSLLESRNRRWFARLEEHLPCPRWRGEDLQGRSLLIGLEAGHGDMIQFCRYAPLLKDRGAARITLVCHVALKDLLKTLDGVDTVISFDEILPDDAWDFWTPAMSIPCYCRTRLDSIPARIPYLHADPGLAEQWAAMLEREWAGPEMRIGLAWKGNPHFENDGDRSLPHLKTLEPLGAVAGVRFFSLQKGAGEEEAAQPPAGLPVVNLMRHIAGFADTAALVANLDLVITVDTAVAHLAGALGTECWVLLPEYRTDWRWLTGRTDSPWYPGVMRLFRQPRVGDWETVVAEVGEALRLFAARPRSPRGTR	failed
MSMVVNSSDQAITMESLGISGHCDDVFCNELTATVIGEMTKRPTRLDIPIGVDGFVAPISSSADVTVTSREECREVEREGYEDTVNNEEISKPKSMKLLAHAGDDESIKRQENEDDDGRTTVDDDDGRGRINVSRLKALLMITTRE	failed
MSNCWKNVLVKPACTLLDALEIINDEALRVVLVVDESDSLLGVVTDGDIRRGLLRNLPLTADIAQVMNTTPYTAAIDTPRDELIAIMESNDILSIPLLDNGKVVGLETLHHALSTPVYENPVFIMAGGFGTRLRPLTDHCPKPMLKIGDKPILETVIRNFIKAGFINFYISTHYMPELIHQHFGDGSTLGVKITYVHEQSPLGTGGALGLLPKELPKDLPLIMMNGDVLTKVDFQRLLEFHTEHDADATMCVREYDYQIPYGVIKGEGNRITSMVEKPIQRFFVNAGIYVVSPVVIQSVPENHHIDMPTLLEQHMNKRNNVLMFPIHEYWLDIGRMDDFNRAQTDIYTLGL	failed
MSNDKTPNSPESTPSTPADEVLDGLLAELSPEASAEPNPADDSGNPFTTIFKSVTDKATELGSAATEGLSNLQESATELAAETKEKFGNFAEAHKDDLGQLLTSAQGKAASFGEAVSDRFGELGESATESFGNLQEGAAGFAAGAKEKFGDFAEASQEKLSEIAETTQDKAASFGEAVSDRVEGLRGSAAEKLGNLQEGASELAAGAKEKFGDFAEASQEKLSEIVETTQGKAASFGEAVSDRVEGLRGSAAEKLGNLQEGASELAAGAKEKFGDFAEASQEKLSEIVETTQGKAASFGEAVSDRFGELGESAAEKLSNLQEDASEFAASAQEKLSTFTNARQEELGNLTKSAQSDVQDTANTVSEQLEQAPEAVSTAADSLKGAQEKLEAAVVASQSVAEKLKPAEVQSQSSLQLASESPSPSFFGRLLRKIKGFFRKLFG	failed
MSNGGSFTVEKLSLYGNPNIGVYLTASDSYVLAPDDIGADDVRTISEVLGVAMERVVRLRVLGMRLVGVLTTGNSRGILLPEGVDREVELVRKALEGVEVGIVPTRSNALGNVIVCNDRACLASPGLEKEALKTVSDTLGVEVVEGSVAGVYTVGSAIVVTNRGGLAHPDASEEELKFLSDVFKVPFEAGTINFGVEFVRTGLVANSYGALVGEDTTGPEIARIQVALGGGVK	failed
MSNHEEKKQHVALSSVAASLLLTAMKLVVGLMTGSIGILSEAAHSAIDFGAAALTWFAVRISDKPADKKHHYGHTKIESVSALIETGLLILTSVWIIYEAVTRLLSGTTEIEVTWYAIAVIIISIIVDISRASALKKVAKETKSQALEADALHFTSDIVSSAVVLAGLGFVALGMHWADAVAGIFVAVLVGKAAWELGRKTIDVLIDTAPEGLSEQIEEIVVNAPGVIGINKMRIKPAGGPFVFIDLTISVSRTLPQEKVVAICAGVEQRLKAALPDSDITVNARPVVLDSETVTERIHTIGLNHGLHAHNILTSLSGDHKQITFDVEVDSRLTIRQAHDAVTELENELHREFNEEIDLCIHLDPINSEERNVQPADPENEARITALIRQAASTIPGILNVHALKIHVLSYNKLCITLHCGFDDNTVLADVHPLTSRLECLIYRDIPETSRIIVHAEPVNAGD	failed
MSNHQKRLSVPNSWPVERKTATFTVKAGAGPHGESGVPLLIVLRDVLGYADNRKEARYALNEDNVLINGKAISDEERPVGMFDILAFTEREEYYRVFPGEGGRLALTAIDPDAAQSKLGKIVTKTHVSGGDVQLGLHDGETLIVEDDQTYDAGDSIVVGNEDGEVVAHFEYEEGALVTAVDGAHAGEVGEVEEIQVTPGSAQNNVIVSQDEGEGFETVEEYVVVIDENFTGDDELEHHHHHH	not failed
MSNKIVTLEINLEPSDNRRLASLCGPFDDNIKHLERRLGVEINHRSDHFTIVGKPHTSAAALDILKTLYVDTAPVRGEIPDIEPEQIHLAIKESGVLEQNTESSIAHGKEVFVKTKKGVIKPRTPNQAQYLVNMVTHDISFGIGPAGTGKTYLAVAAAVDALERQEIRRILLTRPAVEAGEKLGFLPGDLSQKVDPYLRPLYDALFEMLGFERVEKLIERNVIEVAPLAYMRGRTLNDAFIILDESQNTTVEQMKMFLTRIGFNSRAVITGDVTQIDLPRGAKSGLRHAIEVLSEVDDISFNFFQADDVVRHPVVARIVNAYEKWEAQDQKERKEFEKRRREERDAKLLEAAKAELSAQVAATKE	not failed
MSNVIASLEKVLLPFAVKIGKQPHVNAIKNGFIRLMPLTLAGAMFVLINNVFLSFGEGAFFYSMGIRLDASTIETLNGLKGIGGNVYNGTLGIMSLMAPFFIGMALAEERKVDALAAGLLSVAAFMTVTPYSVGEAYAVGANWLGGANIISGIIIGLVVAEMFTFIVRRNWVIKLPDSVPASVSRSFSALIPGFIILSIMGIIAWALSNYGSNFHQIIMDTISTPLASLGSVVGWAYVIFVPLLWFFGIHGSLALTALDSGIMTPWALENISIYQQYGSVDAALEAGKTFHIWAKPMLDSYIFLGGSGATLGLIIAIFLASRRADYRQVAKLALPSGIFQINEPILFGLPIIMNPVMFIPFILVQPILAAITLVAYYLGIIPPITNIAPWTMPTGLGAFFNTNGSVAALLVALFNLAVATLIYLPFVVVANKAQNAIEQEESEEDIANALKF	not failed
MSNVSALPIQPETTPSGGGSVRDRVSPQEWEVRVKLAAAYRLAALKRWTDHIYTHFSARVPGPDEHFLINAFGLLFDEITASNLVKVDIDGTIVDDPTGLGINYAGYVIHSAIHAARHDLQAVLHTHTRDGIAVSAQKGGLLPISQHSIAFSGRVAYHGYEGIALDLSERERLVADLGDKSVMILRNHGLLTGGVSVEHAFQQLHALEYACNIQIAAQSAGNDELVFPPQEVIARVEEQAKVIKDGHGPGVARHWNALIRELERSGTDYRE	failed
MSNVVWTNFGRSSPDRMRARGGKLMAEPDFEAQLTRMFAQAPSFPDAALFNAEVMAKLDRGWAMRRMFIAVAGTGAGLIGAFQIFGSRFSNELAQLSREGSHGLETEINGGWAKLTALLSTPSSAEAVWLAAGLAVVALAFAVTRLVEDF	failed
MSNWNLDNFDNLHSSLAESAYNSRPNSFPELFETDSVTEVKFSQPSEDNKGQITQGGTNLPNDGIVYLQPDKSLKSIDENVKVLIPDVNGGYHTEHYVTHSYQKGVLTDDKAGFNAYYLSDTEKIDSTTKHTYLAIRGSDGIGLDTLNDWVSNNAMFAVSNKYIPQAKLANKAMKEKIAELKGKAPGAIIDVTGHSLGTIVSSQAVVNLSYAELENVGQVVLFDGPDVSRSLEKMEGISAKKIQEAGKHVTYYVNPFDIVSMLNREKP	failed
